The target of this series is T1, NRF1 (GST-NRF1, unphosphorylated) (Homo sapiens, UniProt Q16656 1-503).
T1 sequence: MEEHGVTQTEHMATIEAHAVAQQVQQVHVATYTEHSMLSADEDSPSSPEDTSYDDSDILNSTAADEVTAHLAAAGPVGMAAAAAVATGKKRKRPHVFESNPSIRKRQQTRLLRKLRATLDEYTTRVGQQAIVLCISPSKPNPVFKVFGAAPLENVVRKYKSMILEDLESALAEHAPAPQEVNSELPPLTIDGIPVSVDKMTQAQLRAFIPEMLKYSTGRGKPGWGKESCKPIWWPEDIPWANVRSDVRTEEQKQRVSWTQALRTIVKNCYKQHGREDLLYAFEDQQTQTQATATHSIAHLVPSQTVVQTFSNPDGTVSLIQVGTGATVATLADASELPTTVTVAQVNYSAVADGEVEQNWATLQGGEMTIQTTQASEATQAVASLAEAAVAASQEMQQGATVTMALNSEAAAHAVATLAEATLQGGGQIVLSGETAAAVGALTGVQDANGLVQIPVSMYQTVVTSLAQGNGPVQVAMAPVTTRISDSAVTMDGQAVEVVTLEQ
Put plainly: EMSA; 1-3 ug protein, poly[d(I-C)]; concentration-dependent; 5 mM Hepes pH 8.0, 20 nM DTT (so in the source), 30 mM NaCl, 10 ng DIG probe, 1 ug poly[d(I-C)], 0.5-2 ug GST-NRF1 (Methods; legend 1-3 ug), 5 min RT; 6% native TBE-PAGE, 0.5x TBE pH 8.3, 4 C. Particulars: protein: recombinant; tags: N-terminal GST (pGEX6P1); chain copies: 2; label: DIG (DIG 3'-end labeling kit named); blunt.

B1: Ehmt1 promoter probe (PKO 5019/PKO 5020) (dsDNA)
DNA 1: GCCACCTGGCCTCGCCTCCAGACGCAGGCGCCGCACGGGTGGGTC
DNA 2: GACCCACCCGTGCGGCGCCTGCGTCTGGAGGCGAGGCCAGGTGGC
On to B1, for which the binding result was “binds”.

Source of the values: article PMC6719441, “CDK2 regulates the NRF1/Ehmt1 axis during meiotic prophase I”.
